Experiment in all cases: electrochemical DNA sensor
Data set [1] concerns the target thrombin (bovine, UniProt P00735;P00735 318-366;367-625).
In data set [2] the target is T1, gene 32 protein (g32p), full-length (bacteriophage T4, UniProt P03695 1-301).
T1 sequence: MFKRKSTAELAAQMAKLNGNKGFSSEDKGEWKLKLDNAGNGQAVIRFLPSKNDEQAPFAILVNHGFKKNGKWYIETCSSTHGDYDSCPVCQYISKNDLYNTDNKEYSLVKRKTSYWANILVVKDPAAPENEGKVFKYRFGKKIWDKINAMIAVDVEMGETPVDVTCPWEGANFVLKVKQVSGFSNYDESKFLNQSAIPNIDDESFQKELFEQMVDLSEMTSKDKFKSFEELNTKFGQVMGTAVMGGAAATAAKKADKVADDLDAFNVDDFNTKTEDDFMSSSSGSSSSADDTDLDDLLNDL

The target in data set [3] is T1, gene 32 protein (g32p), full-length. This is another data set of the same source.

In general, Kd refers to the equilibrium constant for the complex coming apart. On to TTTTTTTTTTTTTTTTTTTTT (ssDNA, 5' thiol; 3' methylene blue) [(dT)21 probe], for which, in data set [1], the binding result is recorded as “no binding”. For the same molecule, in data set [2], the Kd was around 100 nM.

B1: (dT)21/(dA)21 duplex (dsDNA)
DNA 1: TTTTTTTTTTTTTTTTTTTTT
DNA 2: AAAAAAAAAAAAAAAAAAAAA
modifications: 5' thiol; 3' methylene blue on dT strand
Consider B1, for which the binding result in data set [3] is recorded as “no binding”.
